{
  "source": "paper PMC8592984",
  "about": "“Tau activates microglia via the PQBP1-cGAS-STING pathway to promote brain inflammation” (Nature Communications, 2021)",
  "binders": {"B1": {"name": "human PQBP1(1–94) including WWD (domain or fragment, UniProt O60828 1-94, looked up)", "chain": "MPLPVALQTRLAKRGILKHLEPEPEEEIIAEDYDDDPVDYEATRLEGLPPSWYKVFDPSCGLPYYWNADTDLVSWLSPHDPNSVVTKSAKKLRS", "notes": "human PQBP1, residues 1-94, including the WW domain (WWD); Used in SPR and in NMR; also called WWD of PQBP1; PQBP1-WWD"}},
  "conditions_in_all_cases": "both partners purified",
  "key": {"[1]": {"target": "T1, human Tau 410 full-length protein (3R tau), SPR construct (human, UniProt P10636-5 1-410)", "T1 construct": "human tau, splice form Tau 410 (a representative 3R tau), 410 residues; numbers count on: Tau 410; source: E. coli Rosetta(DE3)pLysS, purified (Ni-NTA agarose); not shown: His-tag, N-terminal, kept", "T1 sequence (P10636 other isoform, or with tags, fused parts or gaps)": "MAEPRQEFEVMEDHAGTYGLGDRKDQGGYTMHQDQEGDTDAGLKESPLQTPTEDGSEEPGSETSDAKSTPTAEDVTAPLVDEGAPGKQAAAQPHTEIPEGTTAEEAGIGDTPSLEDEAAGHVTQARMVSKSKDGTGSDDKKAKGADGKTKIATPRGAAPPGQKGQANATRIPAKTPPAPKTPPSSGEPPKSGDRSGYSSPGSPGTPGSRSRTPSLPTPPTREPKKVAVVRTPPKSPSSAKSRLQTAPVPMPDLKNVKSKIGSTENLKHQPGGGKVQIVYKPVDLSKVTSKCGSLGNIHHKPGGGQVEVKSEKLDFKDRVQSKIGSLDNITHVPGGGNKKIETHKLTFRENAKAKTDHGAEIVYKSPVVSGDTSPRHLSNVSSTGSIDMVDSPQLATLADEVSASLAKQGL", "assay": "SPR; Tau proteins immobilised on CM5 sensor chips at 1200 RU; PQBP1 constructs loaded at multiple doses for 120 s; equilibrium response; BIAcore J, 25 °C; 10 mM Tris-HCl pH 8.5, 150 mM NaCl, 3 mM EDTA, 0.005% Tween-20"}, "[2]": {"target": "T2, human Tau 441 full-length protein (4R tau), SPR construct (human, UniProt P10636-8 1-441)", "T2 construct": "source: E. coli Rosetta(DE3)pLysS, purified (Ni-NTA agarose); not shown: His-tag, N-terminal, kept", "T2 sequence (P10636 other isoform, or with tags, fused parts or gaps)": "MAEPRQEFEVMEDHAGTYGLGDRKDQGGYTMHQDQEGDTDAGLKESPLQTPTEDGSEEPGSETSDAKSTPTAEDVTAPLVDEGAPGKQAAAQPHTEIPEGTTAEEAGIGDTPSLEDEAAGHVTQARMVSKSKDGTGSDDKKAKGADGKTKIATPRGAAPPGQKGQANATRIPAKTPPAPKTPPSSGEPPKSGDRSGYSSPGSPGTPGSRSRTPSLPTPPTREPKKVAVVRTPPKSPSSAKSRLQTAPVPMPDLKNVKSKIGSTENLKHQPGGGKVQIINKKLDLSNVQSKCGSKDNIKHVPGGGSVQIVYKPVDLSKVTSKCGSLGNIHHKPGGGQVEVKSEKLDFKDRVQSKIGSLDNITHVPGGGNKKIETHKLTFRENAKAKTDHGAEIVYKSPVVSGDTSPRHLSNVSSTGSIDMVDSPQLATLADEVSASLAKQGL", "assay": "SPR; Tau proteins immobilised on CM5 sensor chips at 1200 RU; PQBP1 constructs loaded at multiple doses for 120 s; equilibrium response; BIAcore J, 25 °C; 10 mM Tris-HCl pH 8.5, 150 mM NaCl, 3 mM EDTA, 0.005% Tween-20"}, "Tau 410 P179A": {"target": "T3, Tau 410 P179A (human, UniProt P10636-5 1-410, P179A)", "T3 construct": "human tau, splice form Tau 410, 410 residues, with P179A; numbers count on: Tau 410; also called Tau P179A; source: E. coli Rosetta(DE3)pLysS, purified (Ni-NTA agarose); not shown: His-tag, N-terminal, kept", "T3 sequence (P10636 other isoform, or with tags, fused parts or gaps P179A | P179A | P179A P179A)": "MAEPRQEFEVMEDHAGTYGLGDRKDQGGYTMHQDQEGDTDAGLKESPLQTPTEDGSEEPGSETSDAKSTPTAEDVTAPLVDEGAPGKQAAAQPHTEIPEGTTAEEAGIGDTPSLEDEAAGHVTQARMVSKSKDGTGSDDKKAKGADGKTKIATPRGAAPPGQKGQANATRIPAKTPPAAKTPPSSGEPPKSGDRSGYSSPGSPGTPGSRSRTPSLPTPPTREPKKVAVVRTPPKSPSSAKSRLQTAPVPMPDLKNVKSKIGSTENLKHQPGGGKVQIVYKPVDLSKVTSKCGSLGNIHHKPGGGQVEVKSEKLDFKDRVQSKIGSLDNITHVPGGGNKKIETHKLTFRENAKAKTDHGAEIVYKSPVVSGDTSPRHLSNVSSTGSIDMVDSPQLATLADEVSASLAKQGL", "assay": "SPR; Tau proteins immobilised on CM5 sensor chips at 1200 RU; PQBP1 constructs loaded at multiple doses for 120 s; equilibrium response; BIAcore J, 25 °C; 10 mM Tris-HCl pH 8.5, 150 mM NaCl, 3 mM EDTA, 0.005% Tween-20"}, "Tau 441 P301S": {"target": "T4, Tau 441 P301S (human, UniProt P10636-8 1-441, P301S)", "T4 construct": "also called Tau P301S; FTLD-linked disease mutant of tau; source: bought: Signal Chem (T08-56GN)", "T4 sequence (P10636 other isoform, or with tags, fused parts or gaps P301S | P301S | P301S P301S)": "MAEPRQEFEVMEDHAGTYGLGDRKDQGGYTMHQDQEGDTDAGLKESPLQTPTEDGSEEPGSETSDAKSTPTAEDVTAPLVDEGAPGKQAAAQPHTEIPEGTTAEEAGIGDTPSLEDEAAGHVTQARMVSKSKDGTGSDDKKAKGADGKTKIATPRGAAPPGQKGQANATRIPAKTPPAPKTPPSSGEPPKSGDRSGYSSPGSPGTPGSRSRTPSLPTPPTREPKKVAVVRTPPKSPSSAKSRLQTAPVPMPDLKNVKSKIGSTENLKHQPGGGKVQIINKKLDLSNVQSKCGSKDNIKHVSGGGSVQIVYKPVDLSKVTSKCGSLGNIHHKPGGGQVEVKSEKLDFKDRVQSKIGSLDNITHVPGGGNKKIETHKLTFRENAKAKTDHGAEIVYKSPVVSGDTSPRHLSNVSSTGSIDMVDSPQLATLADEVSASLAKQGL", "assay": "SPR; Tau proteins immobilised on CM5 sensor chips at 1200 RU; PQBP1 constructs loaded at multiple doses for 120 s; equilibrium response; BIAcore J, 25 °C; 10 mM Tris-HCl pH 8.5, 150 mM NaCl, 3 mM EDTA, 0.005% Tween-20"}, "Tau 410 P216A": {"target": "T5, Tau 410 P216A (human, UniProt P10636-5 1-410, P216A)", "T5 construct": "human tau, splice form Tau 410, 410 residues, with P216A; numbers count on: Tau 410; also called Tau P216A; source: E. coli Rosetta(DE3)pLysS, purified (Ni-NTA agarose); not shown: His-tag, N-terminal, kept", "T5 sequence (P10636 other isoform, or with tags, fused parts or gaps P216A | P216A | P216A P216A)": "as the sequence (P10636 other isoform, or with tags, fused parts or gaps P179A | P179A | P179A P179A) above, with A179P, P216A counted along it", "assay": "SPR; Tau proteins immobilised on CM5 sensor chips at 1200 RU; PQBP1 constructs loaded at multiple doses for 120 s; equilibrium response; BIAcore J, 25 °C; 10 mM Tris-HCl pH 8.5, 150 mM NaCl, 3 mM EDTA, 0.005% Tween-20"}, "[3]": {"target": "B1", "assay": "NMR titration; 1H-15N HSQC of labelled tau fragments without and with PQBP1(1–94), molar ratio Tau:PQBP1(1–94) 1:5; 0.1–0.5 mM tau, 20 mM sodium phosphate pH 7.0, 20 mM NaCl, 1 mM dithiothreitol, 283 K"}, "Tau(244–341) of Tau 410": {"target": "T6, Tau(244–341) of Tau 410 (human, UniProt P10636-5 244-341)", "T6 construct": "human tau, splice form Tau 410, residues 244-341 (repeat region); numbers count on: Tau 410; Isotope-labelled (15N); also called the repeat region", "T6 sequence (P10636 other isoform, or with tags, fused parts or gaps)": "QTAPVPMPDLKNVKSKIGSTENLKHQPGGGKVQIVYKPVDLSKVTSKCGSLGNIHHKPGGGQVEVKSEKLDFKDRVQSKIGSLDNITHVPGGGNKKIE", "assay": "NMR titration; 1H-15N HSQC of labelled tau fragments without and with PQBP1(1–94), molar ratio Tau:PQBP1(1–94) 1:5; 0.1–0.5 mM tau, 20 mM sodium phosphate pH 7.0, 20 mM NaCl, 1 mM dithiothreitol, 283 K"}},
  "data": [
    {"binder": "human PQBP1 full-length form (PQBP1-FL) (natural protein, UniProt O60828 1-265, looked up, also called full-length PQBP1) MPLPVALQTRLAKRGILKHLEPEPEEEIIAEDYDDDPVDYEATRLEGLPPSWYKVFDPSCGLPYYWNADTDLVSWLSPHDPNSVVTKSAKKLRSSNADAEEKLDRSHDKSDRGHDKSDRSHEKLDRGHDKSDRGHDKSDRDRERGYDKVDRERERDRERDRDRGYDKADREEGKERRHHRREELAPYPKSKKAVSRKDEELDPMDPSSYSDAPRGTWSTGLPKRNEAKTGADTTAAGPLFQQRPYPSPGAVLRANAEASRTKQQD", "values": [
      {"measurement": "binding result", "setting": "[1]", "value": "binds"},
      {"measurement": "binding result", "setting": "[2]", "value": "binds"},
      {"measurement": "binding result", "setting": "Tau 410 P179A", "value": "binds"},
      {"measurement": "binding result", "setting": "Tau 441 P301S", "value": "binds"},
      {"measurement": "binding result", "setting": "Tau 410 P216A", "value": "binds"}
    ]},
    {"binder": "SSPGSPGTPGSRSRTPSLPTPPTREPKKVAVVRTPPKSPSSAKSRL (domain or fragment, human, UniProt P10636-5 198-243, looked up, human tau, splice form Tau 410, residues 198-243; numbers count on: Tau 410; pOPHLT-s has a TEV protease cleavage site after the His-tag and lipoyl domain; Isotope-labelled (15N); also called proline-rich region)", "note": "[Tau(198–243) of Tau 410]", "values": [
      {"measurement": "binding result", "setting": "[3]", "value": "binds"}
    ]},
    {"binder": "B1", "values": [
      {"measurement": "binding result", "setting": "Tau(244–341) of Tau 410", "value": "binds"},
      {"measurement": "binding result", "setting": "[1]", "value": "binds"},
      {"measurement": "binding result", "setting": "[2]", "value": "binds"}
    ]},
    {"binder": "IATPRGAAPPGQKGQANATRIPAKTPPAPKTPPSSGEPPKSGDRSGY (domain or fragment, human, UniProt P10636-5 151-197, looked up, numbers count on: Tau 410; pOPHLT-s has a TEV protease cleavage site after the His-tag and lipoyl domain; Isotope-labelled (15N); also called proline-rich region)", "note": "[Tau(151–197) of Tau 410]", "values": [
      {"measurement": "binding result", "setting": "[3]", "value": "binds"}
    ]}
  ]
}
